The source of these data is paper PMC4238058, “Phase transitions of multivalent proteins can promote clustering of membrane receptors” (eLife, 2014).

The target in assay [1] is T1, Nck (human, WT, residues 1-377) (human).
T1 construct: two extra N-terminal residues printed before Met1; Nck, human, WT, residues 1-377; source: E. coli BL21(DE3)T1R, purified (glutathione sepharose, TEV on beads, Source 15Q, Source 15S, SD75)
In words: ITC; Nck (150 uM) in the syringe titrated into 5 uM p-Nephrin (3pY) or p-TIR (3pY); 25 mM Hepes pH 7.5, 150 mM NaCl, 1 mM MgCl2, 2 mM TCEP; three-site binding model with a single affinity for Nck (NITPIC, Sedphat); the constant is that of one pTyr site. As to conditions: both partners purified. A general note: ITC needs no label: the signal is the heat of the interaction.

Assay [2] has as its target T2, Nck (cysteine-modified; human, residues 1-377, C139S, C232A, C266S, C340S), fluorophore-labelled (human, C139S (stands in the printed letters) | C232A (stands in the printed letters) | …, maleimide Alexa568 (imaging of association and three color imaging) or Alexa488 (FRAP) on cysteine).
T2 construct: extra N-terminal residues printed before Met1, with the only cysteine left in the chain; Nck, human, residues 1-377 with C139S, C232A, C266S, C340S; The methods tell the expression and purification for GST-Nck; that the cysteine-modified form was made the same way is surmised; also called Nck Alexa568; Nck Alexa488; source: E. coli BL21(DE3)T1R, purified; labelled with a maleimide-conjugated …
In words: fluorescence (TIRF) microscopy of recruitment to a supported lipid bilayer; His8-p-Nephrin Alexa488 attached to a DOPC bilayer with 1% Ni2+-NTA DOGS; 1 uM Nck Alexa568 alone in solution; 25 mM Hepes pH 7.5, 150 mM NaCl, 1 mM MgCl2, 1 mM BME, 0.1% BSA. As to conditions: both partners purified.

B1: triply phosphorylated His8-tagged Nephrin cytoplasmic tail (amino acids 1174-1223, Y1183F, Y1210F; pTyr1176, pTyr1193, pTyr1217) (domain or fragment, human)
chain: GGSLEHHHHHHHHGGSCGGSGGSGGSGGSHLYDEVERTFPPSGAWGPLYDEVQMGPWDLHWPEDTFQDPRGIYDQVAGD
modifications: phosphotyrosine at Tyr1176, Tyr1193 and Tyr1217; maleimide Alexa488 on the single cysteine of the linker (bilayer experiments)
notes: N-terminal stretch as printed: holds the His8 tag named under tags and the (Gly-Gly-Ser)5 linker with the cysteine that is labelled; Nephrin, human, cytoplasmic tail residues 1174-1223 with Y1183F and Y1210F; also called p-Nephrin; Nephrin3Y (before phosphorylation); source: E. coli BL21(DE3)T1R, purified (Ni-NTA, Source 15Q, SD200); phosphorylated with Lck kinase and purified again (Source 15Q, …)
The term Kd denotes the concentration at which binding is half-saturated. The low end stands for a tighter complex, the high end for a looser complex. For the molecule B1, in assay [1], the Kd was found to be 370 nM. Moreover, the binding result in assay [2] was “binds”.

B2: triply phosphorylated TIR3Y (His8-tagged human Nephrin tail with its pTyr sites replaced by the pTyr motif of EPEC Tir) (domain or fragment)
chain: GGSLEHHHHHHHHGGSCGGSGGSGGSGGSHMHIYDEVAADPPPSGAWGHIYDEVAADPWDLHWPEDTFQDPRHIYDEVAADP
modifications: phosphotyrosine in each of the three Tir motifs (triply phosphorylated); fluorescent in the bilayer experiments
notes: N-terminal stretch as printed: holds the His8 tag named under tags, the Gly-Gly-Ser linker with the cysteine, and HM before the first Tir motif; Nephrin, human, stretch between the first and second pTyr sites; Nephrin, human, stretch between the second and third pTyr sites, with Phe at 1210 as in Nephrin3Y; also called p-TIR; p-TIR (3pY); source: E. coli BL21(DE3)T1R, purified (told for …)
Regarding B2, the Kd in assay [1] was determined as 40 nM.
